Patent US12599665B2, “Gene fusions for control of genetically modified cells” (A2 Biotherapeutics, Inc., priority 2020, dated 2026)

B1: ESR1-D: fusion protein SEQ ID NO: 4; ESR1 LBD fused to N-terminus of tBID with Bid α3, α6 and α7 helices (protein)
chain: MKKNSLALSLTADQMVSALLDAEPPILYSEYDPTRPFSEASMMGLLTNLADRELVHMINWAKRVPGFVDLTLHDQVHLLECAWLEILMIGLVWRSMEHPGKLLFAPNLLLDRNQGKCVEGMVEIFDMLLATSSRFRMMNLQGEEFVCLKSIILLNSGVYTFLSSTLKSLEEKDHIHRVLDKITDTLIHLMAKAGLTLQQQHQRLAQLLLILSHIRHMSNKGMEHLYSMKCKNVVPLYDLLLEMLDAHRLHAPTGSSQEDIIRNIARHLAQVGDSMDRSIPPGEKTMLVLALLLAKKVASHTPSLLRDVFHTTVNFINQNL
modifications: tBID fusion protein C3445 (ESR1-D)
notes: ESR1 LBD fused to N-terminus of tBID with Bid α3, α6 and α7 helices
B2: full length Bid: full length Bid expressed alone in HEK293T cells (protein, UniProt P55957 1-195, looked up)
chain: MDCEVNNGSSLRDECITNLLVFGFLQSCSDNSFRRELDALGHELPVLAPQWEGYDELQTDGNRSSHSRLGRIEADSESQEDIIRNIARHLAQVGDSMDRSIPPGLVNGLALQLRNTSRSEEDRNRDLATALEQLLQAYPRDMEKEKTMLVLALLLAKKVASHTPSLLRDVFHTTVNFINQNLRTYVRSLARNGMD
modifications: full-length
notes: full length Bid expressed alone in HEK293T cells
B3: C150: truncated BID (tBID), a potent apoptosis inducer; construct A tBID lacking a LBD (protein, UniProt P55957 61-195, looked up)
BH3-interacting domain death …: GNRSSHSRLGRIEADSESQEDIIRNIARHLAQVGDSMDRSIPPGLVNGLALQLRNTSRSEEDRNRDLATALEQLLQAYPRDMEKEKTMLVLALLLAKKVASHTPSLLRDVFHTTVNFINQNLRTYVRSLARNGMD
modifications: BH3-interacting domain death agonist p15
B4: C-ESR1: fusion protein SEQ ID NO: 7; tBID helices α3, α4, α5 and α6 fused to the N-terminus of ESR1 LBD (protein)
chain: MSQEDIIRNIARHLAQVGDSMDRSIPPGLVNGLALQLRNTSRSEEDRNRDLATALEQLLQAYPRDMEKEKTMLVLALLLAKKVASHTPGSKKNSLALSLTADQMVSALLDAEPPILYSEYDPTRPFSEASMMGLLTNLADRELVHMINWAKRVPGFVDLTLHDQVHLLECAWLEILMIGLVWRSMEHPGKLLFAPNLLLDRNQGKCVEGMVEIFDMLLATSSRFRMMNLQGEEFVCLKSIILLNSGVYTFLSSTLKSLEEKDHIHRVLDKITDTLIHLMAKAGLTLQQQHQRLAQLLLILSHIRHMSNKGMEHLYSMKCKNVVPLYDLLLEMLDAHRLHAPT
modifications: tBID fusion protein C3452 (C-ESR1)
notes: tBID helices α3, α4, α5 and α6 fused to the N-terminus of ESR1 LBD
B5: D-ESR1: fusion protein SEQ ID NO: 5; tBID helices α3, α6 and α7 fused to the N-terminus of ESR1 LBD (protein)
chain: SQEDIIRNIARHLAQVGDSMDRSIPPGEKTMLVLALLLAKKVASHTPSLLRDVFHTTVNFINQNLGSKKNSLALSLTADQMVSALLDAEPPILYSEYDPTRPFSEASMMGLLTNLADRELVHMINWAKRVPGFVDLTLHDQVHLLECAWLEILMIGLVWRSMEHPGKLLFAPNLLLDRNQGKCVEGMVEIFDMLLATSSRFRMMNLQGEEFVCLKSIILLNSGVYTFLSSTLKSLEEKDHIHRVLDKITDTLIHLMAKAGLTLQQQHQRLAQLLLILSHIRHMSNKGMEHLYSMKCKNVVPLYDLLLEMLDAHRLHAPT
modifications: tBID fusion protein C3454 (D-ESR1)
notes: tBID helices α3, α6 and α7 fused to the N-terminus of ESR1 LBD
B6: ESR1-C: fusion protein SEQ ID NO: 6; ESR1 LBD fused to N-terminus of tBID truncation C (protein)
chain: MKKNSLALSLTADQMVSALLDAEPPILYSEYDPTRPFSEASMMGLLTNLADRELVHMINWAKRVPGFVDLTLHDQVHLLECAWLEILMIGLVWRSMEHPGKLLFAPNLLLDRNQGKCVEGMVEIFDMLLATSSRFRMMNLQGEEFVCLKSIILLNSGVYTFLSSTLKSLEEKDHIHRVLDKITDTLIHLMAKAGLTLQQQHQRLAQLLLILSHIRHMSNKGMEHLYSMKCKNVVPLYDLLLEMLDAHRLHAPTGSSQEDIIRNIARHLAQVGDSMDRSIPPGLVNGLALQLRNTSRSEEDRNRDLATALEQLLQAYPRDMEKEKTMLVLALLLAKKVASHTP
modifications: tBID fusion protein C3443 (ESR1-C)

Legend:
Jurkat cells = experiment: Annexin V / PI apoptosis assay in transfected Jurkat cells +/- 4OHT; type: cell-based; settings: for inducible apoptosis with 4OHT / background apoptosis / killing: 1 ug DNA per 1E6 cells; for inducible apoptosis with 4OHT: 1 uM 4OHT vs solvent control, 18-24 hrs; for background apoptosis / killing: solvent control; for induction of apoptosis with 4OHT / background cell death: 2 ug DNA per 1E6 cells, 20 hours; for induction of apoptosis with 4OHT: 200 nM or 1 uM 4OHT; for background cell death: ethanol solvent control
Procedure: (§1) Jurkat immortalized T lymphocytes were transfected with 1 ug per 1E6 cells using Neon electroporation and incubated in RPMI+20% FBS+0.1% Pen/Strep media for 4 hours before adding 1 uM 4-hydroxytamoxifen (+4OHT) or solvent control (No 4OHT). The cells were incubated with 4OHT for 18-24 hours. The cells were then stained with Annexin V to detect apoptotic cells, as well as propidium iodide (PI) to detect dead cells.
Jurkat cells were transfected with 1 ug of DNA per 1E6 cells using Neon electroporation, treated +/−4OHT for 18-24 hrs, and stained with Annexin V to detect apoptotic cells, as well as PI to detect dead cells (FIG. 5A).
One possibility is that the BID α3 and α6 helices are necessary and sufficient for tBID function. Therefore, we made various truncations that included α3 and α6, as well as various other helices. Jurkat cells were transfected with 1 ug DNA per 1E6 cells, treated with 4OHT or solvent control, then stained as in Example 4. […] One exception was the ESR-D tBID fusion construct, which has the Bid α3, α6 and α7 helices (FIG. 6). 0.3 uM staurosporine (STP) and DMSO solvent control were included as controls.
Jurkat cells were transfected with 1 ug DNA per 1E6 cells, treated with 4OHT or solvent control, then stained as in Example 4. The fold change in apoptosis upon 4OHT addition was determined by dividing the percent Annexin V positive cells treated with 4OHT by the percent Annexin V positive cells treated with a solvent control (FIG. 8). The fold change was calculated from one experiment. As electroporation of empty vector always results in some background death of cells, percent Annexin V positive cells of pLenti was used as the background and subtracted from total percentage to obtain “background subtracted” fold change values.
To determine the effect of 4OHT concentration on apoptosis induction in Jurkat cells, Jurkat cells were transfected with 2 ug DNA per 1E6 cells. 4 hours post-transfection, either ethanol solvent control, 200 nM 4OHT, or 1 uM 4OHT was added to the transfected cells then incubated for 20 hours. The cells were then stained with Annexin V and PI to measure cell death.

HEK293T cells = experiment: Annexin V apoptosis assay in transfected HEK293T cells +/- 4OHT; type: cell-based, Human; settings: for cell death observed: 1 uM 4OHT or solvent control; for inducibility of apoptosis with 4OHT: 200 nM or 1 uM 4OHT, ~18-24 hours
Procedure: as §1, with “Human Embryonic Kidney (HEK) 293T cells” for “Jurkat immortalized T lymphocytes”, “Lipofectamine 3000” for “Neon electroporation”, “DMEM+10% FBS+1%” for “RPMI+20% FBS+0.1%”, “DAPI” for “propidium iodide (PI)”
HEK293T cells were transfected with varying amounts of DNA of a vector control (pLenti), with construct A tBID (lacking a LBD, C150, see FIG. 5B), or with C-ESR1 or D-ESR1 (FIG. 10, bottom), and assayed for apoptosis using either 200 nM OHT or 1 μM 4OHT.
To determine the effect of amount of DNA as well as 4OHT concentration on apoptosis induction, we titrated both the amount of DNA (2, 3, or 6 ug DNA per 1E6 cells) and the concentration of 4OHT. 500,000 cells HEK293T cells were plated in a 24-well plate. ˜2 hours after plating, appropriate amounts of DNA were transfected using Lipofectamine 3000 and incubated for 4 hours. Either ethanol solvent control, 200 nM 4OHT, or 1 uM 4OHT was added to the transfected cells then incubated for ˜18-24 hours. The cells were then stained as in Example 4. Intriguingly, C-ESR1 was not inducible in HEK293 Ts, unlike in Jurkat cells (Example 6, FIGS. 7 and 11A-B).

primary T cells [1] = experiment: Annexin V / PI apoptosis assay in transduced primary T cells +/- 4OHT; type: cell-based; settings: lentiviral transduction, 20 hours
Procedure: To characterize tBID-ESR1 safety switch function in primary T cells, D504C cells were transduced with lentiviral constructs containing either C-ESR1 or D-ESR1. The cells were maintained and expanded in media containing 300 IU/mL IL-2. To induce apoptosis, 1E6 cells were resuspended in 1 mL of LymphoONE media containing 1% human serum and 1 uM 4OHT. As a solvent control, same volume of ethanol was added to the cells. 20 hours after 4OHT addition, cells were stained with Annexin V and PI to measure cell death as described in Example 9.

primary T cells [2] = experiment: Caspase-3/7 Green time course of 4OHT-mediated death in transduced primary T cells; type: cell-based
Procedure: To characterize tamoxifen-induced killing activity in transfected Jurkat cells over time, Jurkat cells were transfected with 1 ug DNA per 1 E6 cells as described previously above. 24 hours post-transfection, Jurkat cells were harvested and resuspended in complete RPMI media containing 10% FBS, 1% Pen/Strep, and 5 uM Caspase-3/7 Green Reagent (Essen Bioscience 4440). The resuspended cells were plated onto poly-L-ornithine treated 384-well plates and left at room temperature for 30 minutes. Then, RPMI+10% FBS+1% Pen/Strep+5 uM Caspase-3/7 Green Reagent containing appropriate 2×4OHT or EtOH was added to the cells. Induction of apoptosis was measured using the Caspase-3/7 dye, which couples caspase-3/7 recognition motif with a DNA intercalating dye. Cells turn green if and only if caspase-3/7-mediated apoptosis occurs. The cells were imaged using the IncuCyte S3 Live-Cell Analysis System.
Primary T cells transduced with D-ESR1 were prepared similarly to Jurkat cells in Example 9 and 4OHT-mediated death was measured using the Caspase-3/7 Green Reagent as described in Example 9.

[3] = HEK293T, 1 ug per 1E6 cells, 18-24 hours
[4] = HEK293T, 2, 3, or 6 ug DNA per 1E6 cells

Molecule	inducible apoptosis with 4OHT (Jurkat cells)	background apoptosis / killing (Jurkat cells)	induction of apoptosis with 4OHT (Jurkat cells)	background cell death (Jurkat cells)	cell death observed (HEK293T cells; [3])	inducibility of apoptosis with 4OHT (HEK293T cells; [4])	also measured
B1	high inducibility	low background killing	robustly induced at either 200 nM or 1 uM 4OHT	relatively high background levels of cell death	–	–	–
B2	–	–	–	–	negligible death	–	–
B3	–	–	–	–	significant death	–	Annexin V+ cells (HEK293T cells; HEK293T, 1 ug per 1E6 cells, regardless of the presence of tamoxifen, 18-24 hours): 60-70%
B4	showed inducible apoptosis	–	–	–	–	not inducible	–
B5	showed inducible apoptosis	low background apoptosis	consistently induced apoptosis	–	–	increases the window of induction	inducible killing with 4OHT, Annexin V and PI (primary T cells [1]; 1 uM 4OHT): greatest inducible killing; background cell death, Annexin V and PI (primary T cells [1]; ethanol solvent control): low background; inducibility of apoptosis with 4OHT (HEK293T cells; HEK293T, 2, 3, or 6 ug DNA per 1E6 cells, listed as C3454): retained activity across cell types; background apoptosis (HEK293T cells; HEK293T, 2, 3, or 6 ug DNA per 1E6 cells, ethanol solvent control): does not increase background; background apoptosis, Caspase-3/7 Green Reagent (primary T cells [2]): low background; inducible apoptosis, Caspase-3/7 Green Reagent (primary T cells [2]; 4OHT): inducible apoptosis is seen
B6	–	–	–	relatively high background levels of cell death	–	–	–
